In patent US20070031511A1 (published 2007):
[ ]: non-standard residue; d: D form. pGlu = O=C1CC[C@@H](C(=O)O)N1

Columns and labels:
[1] = molecular target: Ggly receptor on IMGE-5 cells; experiment: cell-based or functional assay
human CCK-2 receptor [2] = molecular target: T1, human CCK-2 receptor (human, UniProt P32239 1-447); experiment: fitted [125I]-BH-CCK8 binding without competitor, displacement curve, Jurkat cells
T1 construct: whole, on cells; One protein on two cell types (transfected COS-7, Jurkat); also called CCK-B receptor
T1 sequence (looked up): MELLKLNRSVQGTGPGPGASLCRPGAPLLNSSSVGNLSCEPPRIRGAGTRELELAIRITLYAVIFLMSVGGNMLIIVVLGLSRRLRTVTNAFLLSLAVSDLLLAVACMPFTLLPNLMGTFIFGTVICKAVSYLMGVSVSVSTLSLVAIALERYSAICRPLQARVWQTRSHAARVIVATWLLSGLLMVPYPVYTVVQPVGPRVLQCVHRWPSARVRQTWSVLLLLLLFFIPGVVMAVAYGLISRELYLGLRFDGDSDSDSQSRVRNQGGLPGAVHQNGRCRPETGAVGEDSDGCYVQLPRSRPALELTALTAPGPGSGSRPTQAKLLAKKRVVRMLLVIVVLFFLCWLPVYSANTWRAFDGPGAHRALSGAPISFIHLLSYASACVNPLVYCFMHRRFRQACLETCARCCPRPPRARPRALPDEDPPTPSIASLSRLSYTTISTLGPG
Experimental: (§1) Non-specific binding was evaluated with […] of unlabelled CCK₈. Incubation was stopped by adding 2 ml of ice-cold PBS containing 2% bovine serum albumin. After centrifugation, supernatants were removed and the radioactivity bound to the cell membranes was measured in a γ-counter (LKB, Wallac, Finland).
(§2) Values of the % maximum binding in the absence of competitor and of the IC₅₀ were obtained from the data presented in FIG. 21 by least squares fitting with the program Sigmaplot. Values from the indicated number of independent experiments were combined to obtain the mean values (±S.E.) presented above. Data were analyzed by one-way analysis of variance.

human CCK-2 receptor [3] = molecular target: T1, human CCK-2 receptor; experiment: displacement of [125I]-BH-CCK8, Jurkat cells; reference Gamide
human CCK-2 receptor [4] = molecular target: T1, human CCK-2 receptor; experiment: displacement of [125I]-BH-CCK8, CCK-2 receptor on Jurkat cells
Experimental: as §1, §2

human CCK-2 receptor [5] = molecular target: T1, human CCK-2 receptor; experiment: displacement of [125I]-BH-CCK8, transfected COS-7 cells; reference Gamide
human CCK-2 receptor [6] = molecular target: T1, human CCK-2 receptor; experiment: displacement of [125I]-BH-CCK8, CCK-2 receptor on transiently transfected COS-7 cells
Experimental: as §2

human CCK-2 receptor [7] = molecular target: T1, human CCK-2 receptor; experiment: fitted [125I]-BH-CCK8 binding without competitor, displacement curve, CCK-2 receptor on transfected COS-7 cells
Experimental: as §2

human CCK-2 receptor [8] = molecular target: T1, human CCK-2 receptor; experiment: single experiment of FIG. 21, displacement of [125I]-BH-CCK8, transfected COS-7 cells
Excerpt: The lines of best fit shown in FIG. 21 were obtained by nonlinear regression to a single site model with the program Sigmaplot.

human CCK-2 receptor [9] = molecular target: T1, human CCK-2 receptor; experiment: cell-based or functional assay

Binder	ED50 (nM), proliferation of IMGE cells, thymidine uptake [1] [nM]	% Maximum Binding (human CCK-2 receptor [2]) [%]	% Maximum Binding (human CCK-2 receptor [7]) [%]	also measured
[pGlu]GPWLEEAAEAYGWMDF-NH2 (ends and bridges not checked, Gamide mutant with Glu8 and Glu9 replaced by Ala; Synthesised by Auspep) [GamideE8,9A]		97.8	98.4	ratio IC50 GamideE8,9A/IC50 Gamide (human CCK-2 receptor [3]): 2.2; IC50 (human CCK-2 receptor [4]): 2.8 nM; ratio IC50 GamideE8,9A/IC50 Gamide (human CCK-2 receptor [5]): 4.1; IC50 (human CCK-2 receptor [6]): 112 nM; IC50 (human CCK-2 receptor [8]): 58.2 nM
XGPWLEEEEEAYGWMDF (N-terminal pyroglutamate (Z); C-terminal phenylalanine amide, Synthetic peptide bought from Bachem; Also tested with 1 uM DFO or with 8 moles Bi3+ per mole; also called G17) [amidated gastrin17 (Gamide)]		100	94.2	inositol phosphate turnover (human CCK-2 receptor [9]): 4 fold
[pGlu]GPWLEAEEEAYGWMDF-NH2 (ends and bridges not checked, Gamide mutant with Glu7 replaced by Ala; Synthesised by Auspep) [GamideE7A]		96.7	92	ratio IC50 GamideE7A/IC50 Gamide (human CCK-2 receptor [3]): 2.4; IC50 (human CCK-2 receptor [4]): 3.1 nM; ratio IC50 GamideE7A/IC50 Gamide (human CCK-2 receptor [5]): 1.4; IC50 (human CCK-2 receptor [6]): 37 nM; IC50 (human CCK-2 receptor [8]): 25.1 nM
EEEEEAY [heptapeptide E5AY]	1.1			
LEEEEEA [heptapeptide LE5A]	2.4			

More lines, main results first:

ED50 (nM), proliferation of IMGE cells, thymidine uptake [1] [nM]	% Maximum Binding (human CCK-2 receptor [2]) [%]	% Maximum Binding (human CCK-2 receptor [7]) [%]	Binder	also measured
0.5			EEEEEA [hexapeptide E5A]	
1			LEEEEEAYG [nonapeptide LE5AYG]	
0.9			LEEEEE [hexapeptide LE5]	
